Data reported in the DeepSol protein solubility set.

assay: soluble on expression in E. coli; label from the status in PepcDB or PDB records

| Sequence | soluble on expression in E. coli |
| --- | --- |
| MGSDKIHHHHHHMLYSFSRLVYRILTVVGVLDGRAAYKRRIQLTGRSTYIVSLPKEWVETWRLGRGSEVTLEVMPDGSLKIAPSASERPARRDRRVIDLRGKELDLSFVIKSVIASYLAGYDEVLLLFGDGSVDAVSKIRSIVESNILGFNVLEEGPGYIVFVSVVDHRSMEFSRALSRMARIAAEMIRDVARGLENGDRGLLDLVAERDQLVDKLYLYMARQMTMASSGRLPLKDLGVYSPAEIVHLFLAVKSIERVADHATILSVRVSASLGAGMSVENGLSSLVMEAAEGFSKSVEALIKADAGLAASIAPVLSEYRSRLESMTAQEFLRGGGSLLRYLVIDSMRRITGYSLDIAEAALDISAVREKAKSEGP | not soluble |
| MGSDKIHHHHHHMMATSAVEKIDYWQASILKEMELSRAQFTHFAFEKHVHLDYHIGVVCHGGQRYHHRGSEYRLTPGNISTLNPDESHNGQSIADGGYEALVMSLPTSYVQQVGGALNQGELYFSTPILDDPKLRAYFIRLHRQLTLHQANITPLEAETLLLGFISELFYRHGKLRNLPSCQARLSGAQLDNIKQQFHQGLDQEFELEQLALSVDLSKFQFLRQFKAATGMTPHAYLKRLRLEYAKKALMRGDSAISTAYDLGFFDQSHFNKAFKRAFLITPAHFQKRVTP | not soluble |
| MGSDKIHHHHHHMMFKWPWKADDESGNAEMPWEQALAIPVLAHLSSTEQHKLTQMAARFLQQKRLVALQGLELTPLHQARIAMLFCLPVLELGIEWLDGFHEVLIYPAPFIVDDEWEDDIGLVHNQRVVQSGQSWQQGPVVLNWLDIQDSFDASGFNLVVHEVAHKLDTRNGDRASGVPLIPLREVAGWEHDLHAAMNNIQDEIDLVGESAASIDAYAATDPAECFAVLSEYFFSAPELFAPRFPALWQRFCHFYRQDPLARRRENGLQDEGDRRIVH | not soluble |
| MGSDKIHHHHHHMMKILFIYRHPSMGFSIGKVFRPIEEEMKKYAEVDSIYMPTSQYSLNSIWQNIKTTRKAINSKKYDIVHITGTEHYLIPFLLGEKVVVTVHDLGHYFDIHGLKKILFWIMQIFSLKFAKAITCISNFTVQELKKTISIKNNKISVIFNEVDKNFSFKEKEFNKDYPVILHIGTRPHKNLSRTIKALNGIKCKLRIIGEITNKELDLLQKYKTDYSFASNLSDNDLLKEYQNADIINFPSCHEGFGMPIIEGQAVGRIVVTSNIEPMISVANNGAAICDPYNIESIRNTYIRVINDFQYRNDIILKGIDNVKKYSIETVAKQYFELYKTL | not soluble |
| MGSDKIHHHHHHMMKTDYVFCVDSDGCAMDTMTYKHKLFFGPLAADVFDVKDREPFLAEWNRVNLYSRERGINRFVGLVKGLDFAGVTGIDNLKNWVATTDSLSNASLERLIEETPSKDLELALEWSTQVNQAIKHYSGPVLAFIGVHKGLEKLSQLGKVYVVSSANKEAVEEEWTDQGLLDFVTELYCQDRGKKEDVIKILIEEGYCPDKIMMIGDSPGDLKAAELNGVHFYPILVGQEMQSWADLTETIADEFAHQAFTGEKETELIQAFWNNLDD | not soluble |
| MGSDKIHHHHHHMMLVQLRQVGVIRSPYKNFSKAPHQGRFSKETVEIEIFPEFEDGLKDIETCTHLIVLYWLDRANRDALLVVPPHDSREHGVFATRSPHRPNPIGFAVVELLERDGRVLKVKGLDALDGTPVVDIKPYSSTIDSVGNAKIGWFEEANPQSKLTRLLLRAKEFHGHICPFVALGVRMSVIAMEKLGVEEDAMASVGEDILAIVECNNCLTDGVQVATGCTLGNNSLIYLDLGKNALTIVRRKDWKGVRVYVNAENVRKYFSKEALELFNKVIVRREGSEEDAKRLSEFWEETGWKMLEIPEEEFKVEFVEVQPIERAPIFENKRCEKCGELAMATRVKDGLCLRCAGSYYAVVGRGIVKFDGEMREVV | not soluble |
| MGSDKIHHHHHHMMNNIGLILFDIDGVIRDVTNSYRLAIQETVNFFSGWRPSIEDIDSIKSEGCWNNDWDLSLEMINRHVQKNNLSFSAPSRKILIECFENFYFGGDPNHDSSEWSGFIKDETLLVKKTFFEELTQRRIGWGFVSGAELPSAKFVLEQRLGLASAPLIAMGEAPEKPDPTGFISLSSKLSKKPLGFSNPPIAYIGDTVADVKTVINARIKIPDQKFISLAIAPPHLHVDSSREKRLRYEAELKKAGADLIIKSMDNLKNETLNLFINQ | not soluble |
| MGSDKIHHHHHHMMNTTETAPVLNPALEDEYSKALDEIKQFGEAQTHTVHDLGSATWAMRKLGELNKEDAEARKVVQANIDQLNEWLQHSLEARQSRRNYLEHEVLAYVANNRKHDPKYKLDTPYGKVSFTVKRKATPAISDETQVLNFIKSNWNESEQTQVIKRTEKVLVSELKKQVTVAGDKVIDEDGQPIPGMHVDPAGTETPHIKPIQMTEALS | not soluble |
| MGSDKIHHHHHHMMPMDWEITFKGITYECINCAYCCSCKGWRIYLNYFDRLKLKDYEYAIEPCEGEFKYRLKVNEKGCVLLNNNLCRIHLEKGYEFKPLMCMIFPFSCMIKWDGTPLLIIKHYCSGIKKGKISKKVVNEAIELIKELYFDMFEEIIENGMEHSSKTEIFENFRVDWEEREDFGRYIFSSKTFDEMFERCREIFGNKINKLNLEEIDEIKNNLQRYNTKENEEEILRYLLELNRREHFRKLPFYREVNKLINIGNYLTKYKNVFKGEGEVDKKLFLNLK | not soluble |
| MGSDKIHHHHHHMMSEEKILSVDFTQEDAYTEILPRSPLVSSYHAQWQGLRLDVHQQPGHETPEHSPQQHVLTVSLEQQIVRSERILDGRLQYENIAKGDVAIIPAQTRHISRWQSEAKFLVLSMEPAFFTRMVIEAGDLQKIEIKPRFAAPDPLIQQIGLALQTELESEHKGSSIYIESLTTTLCIHLLKHYCVTGGTILDDHHHKGLSHWKLRQAISYIHENLDQDLTLVDISTAVGMSMYYFSRQFKQSTGFAPHQYVMNCRIERAKKLLGSTNKTIEQICTQVGFQSQSHFTNVFRKLMGITPRVYREQVKT | not soluble |
| MGSDKIHHHHHHMMSFREDKLLATNVPMRIVSLISKINEYKGKQVLYNQQAPEVLNTLKNVAIIQSTRASNSLEGITIKDTRLIDIMQNKVQPANRSEGEIAGYRDVLATIHSSYDAIPVKPSILLQFHRDLYRFISLEGGSWKNSDNAIEEVYPDGSKFVRFNPVSSFATPGAIEELCKFYNQYSNSGEIDSLMLISATILDFLCIHPFCDGNGRMARLLTLLLLYKEGYEVGRFISLEQIIEESKDAYYDTLYQSSQNWHEGKHDLLIWSEYLLGIILAAYKELMDRVGKVSRARGNKAMRVEETIDHFVSNFSINDIRRRCPDISPSTINRVLAKLRDANKIEVLGIGRGAKWKKNY | not soluble |
| MGSDKIHHHHHHMNALPLVSVVVPNYNYKRYLNLRIQSILQQTYQNIELILLDDASTDGSEEVLSDYQDHAKVSHILLNEHNTGNPFKQWFKGMQLAKGKYIWIAEADDLCELTFLEKVVPLMEKYQQAAVCFAGSKYIDKDGNVLSYDMNKWKSAIPPYAVFNGKTYAEHNLYWRSYIANASSAIFRKSMVNAQNMEQCLQMRYSGDWLFWFYMAMQGDIIERYEVLNYFRQHNQKVTVKAENNGGGKSEDIEIVRIMEQHLTHLSRYKRCIRRGMLYNRIAKLSTTDRVKLQLWELLRQKLNGTRKDGRLERLNRIARLFCPFVLTMKRDRLTPSREIG | not soluble |
| MGSDKIHHHHHHMNALRLEDLISVEMLQKVQDNFSAAVGIAMIIVDERGTPVTRPSNFSAFCQTIRTSAARRDQCFQCDDDGGRRAMAMGEPSIYQCHCGLVDFAAPIIVRDQYLGAVISGQVRLRQGHEVTLEYIAPPDESWRQDAHLIALREKITEIPYVKLRSAAYTLYHLAAYLVEESYSNAVSQELSAKNLKLMEESKRRVELEKSLREAELQALSYQVNPHFLFNVLNTIGRLALKEHAPKTEDMLYAFADMMRYVLKKSRSQIVSLQTEVGHVRNYLHIQKVRMGDRFTFTMDVPAKYDGILCPFMVLHPIVENSINYAIEPHEADGRIEITARDDGLNMILRVVDNGDGVSPELVRAALDGVAEPHGRTSIGLHNVDSRLRHFFGPDYGLTVESPATPGGRHGRRDALSPGLRSLRHLNACAEERRLCTALSLLKTRNSSARRCAPF | not soluble |
| MGSDKIHHHHHHMNAQTPIRRPISLVLASPRGFCAGVDRAIQIVERAVEKFGAPVYVRHEIVHNRHVVDRLKALGAVFIEELEEAPDDRPVVFSAHGVPKSVPAEAKARQMIYLDATCPLVSKVHVEAQKHYDAGREIVLIGHAGHPEVIGTMGQLPEGAVTLIEDLKDAAAWEPKDAANVAFLTQTTLSVDDTADMVALLRERFPGIAAPHKEDICYATTNRQDAVKHLAEQSELILVVGSKNSSNSVRLKEVGLKAGARDAHLIDDASGIDWTWFDGISRVGLTAGASAPEDLVQGVIDAISARFDTTVEELVEARETITFKLPRLLTA | not soluble |
| MGSDKIHHHHHHMNAVPQWRLAGDWFDICSCDIPCPCEFAQRPTGNHCQGVLAWHVREGQYGDVKLDGLTLVALGEFEGNLWAGEAKAVMGMYLDEKANESQREALQAIFGGHAGGWPAGFAANVGEMRGMEFVPITFEVAGDLATWRVEIPGLVVGRVEALSGPTTPPGKRVQTINPPGSEVGPGQVATWGRSVEVSTKGFGLDWIGTARSSKHIPFDWTGPS | not soluble |
| MGSDKIHHHHHHMNDFEEYIRQSEPHKREKGYAWQTAIGLQAVDGLKPSEYLKEKARQHIEGDITIDEVKQLVDSYYKSKVARSSSEDRTEEADKVSARITEILSENTFTFSPIEYLAIHRHLFEGIFSHAGQIRDYNITKNEWVLKGATVLYASAGSIRETLEYDFSQEKIFDYKNLNIDEAIRHIARFVSGIWQIHAFGEGNTRTTAVFTIKYLHTFGFNFSNETFANHSWYFRNALVRANYNDLTKGVYATTEFLEKFFRNLILNEQNELKNRNLQIDEIEKEAIQSAKQTDMDIPKCKNCTLDCTLEEIAVLNYLKEKPNATQKEIAQHIGKSERTVKSMTVNLSERGIIERKNGRRNGFWEIKK | not soluble |
| MGSDKIHHHHHHMNEIRVSSWPALHEVLYGESWNPRLGRFRSPFVFRGQSRAEAKLTTTLQRLSGETREIERHLLRNFRKYAYRNGMDRDLPWYWLAVGQHHGLPTRLLDWTTSPLVALHFATAEEDHYSQDGVVWMVNFIRTNERLPAPLKALLEQEGADVFTVDMLTAFSRAHRSQQMPELGQQPSFDLSWLEDLEREAEHPFLLFLEPPSIDERIVQQAALFSLLSDPEAALDDWLVQHPGTAHKVILPADLKWEIRDKLDQSNITERTLFPGLGGLSQALRRYYRVGRDPSQQQGATAEEQAQEMERQN | not soluble |
| MGSDKIHHHHHHMNFEIPQSLIHPLLALIQAESPLARQLREHGVCHGNMVVSARLFDAQSLSSLYTLSKAQNERELLFQMLALDNIYNAPQARTIPGLEMLVAGLIAYLSRDAIDGWLYQRSRDGVLLPWLVQRIRHVEPEQGMPYVAIDMLANTMLSANSEQTDPTRRRSGMTTSIIVTRDEIVDRTIPELLAEFGFFKECAEFRREYEIHAQRFVRYQRSFGAQFIATRAGFTVEGKNTVALARIADGVTARCINDEERLERRFEMNCDAEFWRRAGVVSGFEKVPLHGYVHLFHLEWHQNIWVHVQHLSEYKYRPELRDKLVLPDHHRDLIDILTSHMDVLVQDFVPGKSGGTTILCQGAPGLGKTLTAEIYAEVVGKPLYRVHSGQLGTTAASVGATLMEILRRAMRWNAVLLLDEADVYIRRRDNDLEHNAIVAEFLRTLEYFSGLLFMTTNRTGDVDDAILSRCIATIQYETPCREDAARLWRLQADQCGVSLQDELVDALTAAYPKASGRDIKELMKLATRYSEAKQIALSEDVFRLCAQFRAIE | not soluble |
